± gives the uncertainty stated by the source.
B1: Transcriptional repressor p66-beta, residues 415 to 455; numbered along this chain, Q8WXI9 (parent)
chain: VEPFVCAQCRTDFTPHWKQEKNGKILCEQCMTSNQKKALKA
B2: 1-phosphatidylinositol 4,5-bisphosphate phosphodiesterase gamma-2, residues 772 to 827; numbered along this chain, P16885 (parent)
chain: RTVKALYDYKAKRSDELSFCRGALIHNVSKEPGGWWKGDYGTRIQQYFPSNYVEDI

Variants of: B1
Experiment: abundance fitness (aPCA) (normalised: wild type 0, dead -1); higher = more abundant; growth selection in yeast, the domain comes from the species named
Details: Homo sapiens

| Variant | abundance fitness |
| --- | --- |
| L39I | 0.122 ± 0.18 |
| L39G | 0.157 ± 0.052 |
| L39C | -0.1 ± 0.16 |
| L39S | 0.094 ± 0.097 |
| L39T | -0.199 ± 0.13 |
| L39K | -0.015 ± 0.13 |
| L39Q | -0.291 ± 0.17 |
| L39F | -0.425 ± 0.26 |
| L39E | -0.108 ± 0.1 |
| L39R | -0.016 ± 0.061 |
| L39A | -0.083 ± 0.079 |
| L39V | 0.078 ± 0.061 |
| K37V | -0.035 ± 0.076 |
| K37M | 0.095 ± 0.13 |
| K37P | 0.1 ± 0.088 |
| K37E | 0.142 ± 0.066 |
| K37H | -0.176 ± 0.23 |
| K37Y | -0.116 ± 0.2 |
| K37I | -0.092 ± 0.24 |
| K37Q | 0.168 ± 0.079 |
| K37S | -0.056 ± 0.093 |
| K37R | -0.074 ± 0.064 |
| K37G | -0.015 ± 0.056 |
| K37L | -0.036 ± 0.08 |
| K37N | -0.226 ± 0.19 |
| K37D | -0.191 ± 0.21 |
| K37A | 0.018 ± 0.067 |
| K37T | -0.027 ± 0.11 |
| K37C | -0.309 ± 0.14 |

Variants of: B2
Experiment: as above
Details: Homo sapiens

| Variant | abundance fitness |
| --- | --- |
| RTVKALYDYKAKRSDELSFCRGALIHNVSKEPGGWWKGDYGTRIQQRFPSNYVEDI [Y47R] | 0.076 ± 0.063 |
| RTVKALYDYKAKRSDELSFCRGALIHNVSKEPGGWWKGDYGTRIQQIFPSNYVEDI [Y47I] | -0.607 ± 0.25 |
| RTVKALYDYKAKRSDELSFCRGALIHNVSKEPGPWWKGDYGTRIQQYFPSNYVEDI [G34P] | 0.01 ± 0.071 |
| RTVKALYDYKAKRSDELSFCRGALIHNVSKEPGLWWKGDYGTRIQQYFPSNYVEDI [G34L] | -0.083 ± 0.067 |
| RTVKALYDYKAKRSDELSFCRGALIHNVSEEPGGWWKGDYGTRIQQYFPSNYVEDI [K30E] | -0.042 ± 0.072 |
| RTVKALYDYKAKRSDELSFCRGALIHNVSFEPGGWWKGDYGTRIQQYFPSNYVEDI [K30F] | -0.21 ± 0.062 |
| RTVKALYDYKAKRSDELSFCRGALIHNVSKEPGGGWKGDYGTRIQQYFPSNYVEDI [W35G] | -0.625 ± 0.072 |
| RTVKALYDYKAKRSDELSFCRGALIHNVSKEPGGRWKGDYGTRIQQYFPSNYVEDI [W35R] | 0.089 ± 0.074 |
| RTVKALYDYKAKRSDELLFCRGALIHNVSKEPGGWWKGDYGTRIQQYFPSNYVEDI [S18L] | -0.987 ± 0.32 |
| RTVKALYDYKAKRSDELCFCRGALIHNVSKEPGGWWKGDYGTRIQQYFPSNYVEDI [S18C] | -0.512 ± 0.5 |
| RTVKALYDYKAKRNDELSFCRGALIHNVSKEPGGWWKGDYGTRIQQYFPSNYVEDI [S14N] | -0.316 ± 0.21 |
| RTVKALYDYKAKRKDELSFCRGALIHNVSKEPGGWWKGDYGTRIQQYFPSNYVEDI [S14K] | -0.172 ± 0.17 |
| RTVKALYDYKAKRSDELSFCRGALIHNVSKELGGWWKGDYGTRIQQYFPSNYVEDI [P32L] | -0.014 ± 0.078 |
| RTVKALYDYKAKRSDELSFCRGALIHNVSKEAGGWWKGDYGTRIQQYFPSNYVEDI [P32A] | 0.056 ± 0.073 |
| RTVKALYDYKAKRSDELSFCRGALIHNVSKEPGGWWKGDYGTRIQQYFPSNYFEDI [V53F] | -0.803 ± 0.37 |
| RTVKALYDYKAKRSDELSFCRGALIHNVSKEPGGWWKGDYGTRIQQYFPSNYDEDI [V53D] | -0.823 ± 0.25 |
| RTVKALYDYAAKRSDELSFCRGALIHNVSKEPGGWWKGDYGTRIQQYFPSNYVEDI [K10A] | -0.319 ± 0.12 |
| RTVKALYDYYAKRSDELSFCRGALIHNVSKEPGGWWKGDYGTRIQQYFPSNYVEDI [K10Y] | -0.106 ± 0.27 |
| RTVKALYDYIAKRSDELSFCRGALIHNVSKEPGGWWKGDYGTRIQQYFPSNYVEDI [K10I] | -0.336 ± 0.32 |
| RTVKALYDYNAKRSDELSFCRGALIHNVSKEPGGWWKGDYGTRIQQYFPSNYVEDI [K10N] | -0.042 ± 0.33 |
| RTVKALYDYKAKRSDELSQCRGALIHNVSKEPGGWWKGDYGTRIQQYFPSNYVEDI [F19Q] | -0.721 ± 0.34 |

| Variant | abundance fitness |
| --- | --- |
| RTVKALYDYKAKRSDELSDCRGALIHNVSKEPGGWWKGDYGTRIQQYFPSNYVEDI [F19D] | -0.685 ± 0.13 |
| RTVKALYDYKAKRSDELSFCRGARIHNVSKEPGGWWKGDYGTRIQQYFPSNYVEDI [L24R] | -0.299 ± 0.075 |
| RTVKALYDYKAKRSDELSFCRGAWIHNVSKEPGGWWKGDYGTRIQQYFPSNYVEDI [L24W] | -0.359 ± 0.12 |
| RTVKALYDYKAKRSDELSFCRGACIHNVSKEPGGWWKGDYGTRIQQYFPSNYVEDI [L24C] | -0.044 ± 0.099 |
| RTVKALYDYKAKRSDELSFCRSALIHNVSKEPGGWWKGDYGTRIQQYFPSNYVEDI [G22S] | -0.681 ± 0.14 |
| RTVKALEDYKAKRSDELSFCRGALIHNVSKEPGGWWKGDYGTRIQQYFPSNYVEDI [Y7E] | -0.117 ± 0.093 |
| RTVKALYDYKAKRSDELSFCRGALIHNVSKEPGGWWKGDYGTRIQQYFPSNYVLDI [E54L] | -0.434 ± 0.05 |
| RTVKALYDYKAKRSDELSFCRGILIHNVSKEPGGWWKGDYGTRIQQYFPSNYVEDI [A23I] | -0.613 ± 0.23 |
| RTVKALYDYKAKRSDELSFCRGQLIHNVSKEPGGWWKGDYGTRIQQYFPSNYVEDI [A23Q] | -0.595 ± 0.19 |
| RTVKALYDYKAKRSDELSFCRGSLIHNVSKEPGGWWKGDYGTRIQQYFPSNYVEDI [A23S] | -0.154 ± 0.093 |
| RTVKALYDYKAKRSDELSFCRGVLIHNVSKEPGGWWKGDYGTRIQQYFPSNYVEDI [A23V] | -0.296 ± 0.083 |
| RTVKALYDYKAKRSDELSFCRGWLIHNVSKEPGGWWKGDYGTRIQQYFPSNYVEDI [A23W] | -0.858 ± 0.32 |
| RTVKALYDYKAKRSHELSFCRGALIHNVSKEPGGWWKGDYGTRIQQYFPSNYVEDI [D15H] | -0.362 ± 0.33 |
| RTVKALYVYKAKRSDELSFCRGALIHNVSKEPGGWWKGDYGTRIQQYFPSNYVEDI [D8V] | -0.982 ± 0.2 |
| RTVKALYDYKAKRSDELSFCRGALIHNVSKEPGGWWKGDYGTRIQRYFPSNYVEDI [Q46R] | -0.175 ± 0.073 |
| RTVKALYDYKAKRSDELSFCRGALIHNVSKEPGGWWKGDYGTRIQLYFPSNYVEDI [Q46L] | -0.041 ± 0.062 |
| RTVKAVYDYKAKRSDELSFCRGALIHNVSKEPGGWWKGDYGTRIQQYFPSNYVEDI [L6V] | -0.356 ± 0.075 |
| RTVKAKYDYKAKRSDELSFCRGALIHNVSKEPGGWWKGDYGTRIQQYFPSNYVEDI [L6K] | 0.01 ± 0.1 |
| RTVKALYDYKAKRSDELSFLRGALIHNVSKEPGGWWKGDYGTRIQQYFPSNYVEDI [C20L] | -0.116 ± 0.081 |
| RTVKALYDYKAKRSDELSFCRGALIHIVSKEPGGWWKGDYGTRIQQYFPSNYVEDI [N27I] | -0.748 ± 0.4 |
| RTVKALYDYKAKRSDELSFCRGALIHNVSKEPGGWWKGDYGTQIQQYFPSNYVEDI [R43Q] | -0.039 ± 0.12 |

| Variant | abundance fitness |
| --- | --- |
| RTVKALYDYKAKRSDELSFCRGALIHNVSKEPGGWWKGDYGTHIQQYFPSNYVEDI [R43H] | 0.022 ± 0.092 |
| RTVKALYDYKAKVSDELSFCRGALIHNVSKEPGGWWKGDYGTRIQQYFPSNYVEDI [R13V] | -0.47 ± 0.13 |
| RTVKALYDYKAKLSDELSFCRGALIHNVSKEPGGWWKGDYGTRIQQYFPSNYVEDI [R13L] | -0.645 ± 0.12 |
| RTVKALYDYKAKESDELSFCRGALIHNVSKEPGGWWKGDYGTRIQQYFPSNYVEDI [R13E] | -0.306 ± 0.23 |
| RTVKALYDYKAKRSDELSFCFGALIHNVSKEPGGWWKGDYGTRIQQYFPSNYVEDI [R21F] | -0.235 ± 0.19 |
| RTVKMLYDYKAKRSDELSFCRGALIHNVSKEPGGWWKGDYGTRIQQYFPSNYVEDI [A5M] | -0.942 ± 0.082 |
| RTVKALYDYKAKRSDELSFCRGALIHNVSKEPGGWWKGDYGTRIQQYFPDNYVEDI [S50D] | -0.506 ± 0.12 |
| RTVKALYDYKAKRSDELSFCRGALIHNVSKEPGGWWKGDYGTRIQQYFPYNYVEDI [S50Y] | 0.057 ± 0.098 |
| RTVKALYDYKAKRSDELSFCRGALIHNVSKEPGGWWKGDYGTRIQQYFPINYVEDI [S50I] | -0.261 ± 0.096 |
| RTVKALYDYKAYRSDELSFCRGALIHNVSKEPGGWWKGDYGTRIQQYFPSNYVEDI [K12Y] | -0.48 ± 0.12 |
| RTVKALYDYKAGRSDELSFCRGALIHNVSKEPGGWWKGDYGTRIQQYFPSNYVEDI [K12G] | -0.182 ± 0.063 |
| RTVKALYDYKAKRSDELSFCRGALIHNVSKEPKGWWKGDYGTRIQQYFPSNYVEDI [G33K] | -0.781 ± 0.47 |
| RTVKALYDYKAKRSDELSFCRGALIHNVSKEPGGWWKGDMGTRIQQYFPSNYVEDI [Y40M] | -0.336 ± 0.32 |
| RTVKALYDYKAKRSDELSFCRGALIHNVSKEPGGWWKGDGGTRIQQYFPSNYVEDI [Y40G] | -0.864 ± 0.085 |
| RTVKALYDYKAKRSDMLSFCRGALIHNVSKEPGGWWKGDYGTRIQQYFPSNYVEDI [E16M] | -0.633 ± 0.096 |
| RTVKALYDYKAKRSDVLSFCRGALIHNVSKEPGGWWKGDYGTRIQQYFPSNYVEDI [E16V] | -0.612 ± 0.074 |
| MTVKALYDYKAKRSDELSFCRGALIHNVSKEPGGWWKGDYGTRIQQYFPSNYVEDI [R1M] | -0.07 ± 0.25 |
| RTVKALYDYKAKRSDELSFCRGALIHNVSKMPGGWWKGDYGTRIQQYFPSNYVEDI [E31M] | -0.009 ± 0.1 |
| RTVKALYDYKAKRSDELSFCRGALIHNNSKEPGGWWKGDYGTRIQQYFPSNYVEDI [V28N] | -0.671 ± 0.49 |
